In the supplement of paper PMC10567573 one finds protein stability index data, which are given here for 72 sequences.

This series is described as follows: protein stability index of a GFP-peptide fusion (GPS, HEK-293T) (PSI 1-6); higher = more stable.
[1] abbreviates: treatment: DMSO, c terminus: a fixed tail appended.
The mark [2] stands for this setting: treatment: MLN4924 1 uM, 8 h, c terminus: a fixed tail appended.

± gives the standard deviation.
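Note: 24-mer peptide tiles fused after GFP, lentivirally expressed, FACS-sorted into six equal bins by GFP/DsRed ratio, decoded by Illumina sequencing, PSI is the read-weighted mean bin number.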

In turn, LNTRSQAPLLRWVLTLSFLVATVA [HMOX1] gave a protein stability index under setting [1] of 2.33 ± 0.46 and a protein stability index under setting [2] of 2.15 ± 0.31.

As to LPFGPFNGTAWTYHSQDELGGFSH [PKD2L1], the protein stability index reads like this: under setting [1], 2.41 ± 0.13; under setting [2], 2.58 ± 0.18.

For the sequence LPIFTPAKMGATKEEREDTPIQLQ [TCAP], the protein stability index runs as follows: under setting [1], 4.7 ± 0.089; under setting [2], 4.72 ± 0.088.

In the case of LPKELPADAVNLTIPASLDLSPLL [PLAGL1], the protein stability index came to 3.32 ± 0.19 under setting [1] and 3.48 ± 0.28 under setting [2].

For the sequence LPQETNLTLKVCKPQAPQKLDPTL, the protein stability index is, setting by setting: under setting [1], 3.58 ± 0.36; under setting [2], 3.91 ± 0.49.

With LPREPGDSAQFTKALAIILHLLYL [FEM1A], the protein stability index by setting is: under setting [1], 2.16 ± 0.12; under setting [2], 2.23 ± 0.12.

Regarding LQELCYQWLRPHVSTKEQILDLLV [ZSCAN9], the protein stability index under setting [1] is 2.52 ± 0.094 and the protein stability index under setting [2] was found to be 2.45 ± 0.28.

With LQVRGYPEEKKEEEGSANRRPEDQ [CHGA], the protein stability index is 5.61 ± 0.21 under setting [1] and 5.7 ± 0.25 under setting [2].

Take LRFLHENQLTHTDLKPENILFVNS [CLK3]: the protein stability index is, setting by setting: under setting [1], 2.49 ± 0.23; under setting [2], 2.86 ± 0.36.

LRFLYSDEVQIGPETVMTTLYTAK [BTBD1]: the protein stability index runs as follows: under setting [1], 2.48 ± 0.38; under setting [2], 1.99 ± 0.24.

Take LRREPSERLTAPEILLHPWFESVL [TRIB1]: the protein stability index amounted to 2.51 ± 0.25 under setting [1] and 2.74 ± 0.52 under setting [2].

On to LRRKEQLWEKLAKQGELPREVRRA [NOP53], for which the protein stability index by setting is: under setting [1], 3.58 ± 0.18; under setting [2], 3.7 ± 0.36.

With LRVGIPENAPIGTLLLRLNATDPD [PCDHGC5], the protein stability index reads like this: under setting [1], 2.92 ± 0.18; under setting [2], 3.22 ± 0.32.

Regarding LSGASPFLGETKQETLTNISAVNY [DAPK3], the protein stability index by setting is: under setting [1], 3.73 ± 0.2; under setting [2], 3.85 ± 0.25.

Consider LSKASEPKYQLFVPQLVTGRCATR [RNF180], for which the protein stability index was determined as 2.88 ± 0.4 under setting [1] and 2.94 ± 0.2 under setting [2].

Take LSPTQRQKNFELAFTMAENLANCE [SMTNL2]: the protein stability index is 3.39 ± 0.19 under setting [1] and 3.67 ± 0.52 under setting [2].

Consider LSRRQLCPLTPGPGKALGPAATMA [C2CD2L], for which the protein stability index runs as follows: under setting [1], 2.93 ± 0.37; under setting [2], 3.13 ± 0.38.

With LSSSCCHTVPDFHLSSPAKNFFKK [PLK2], the protein stability index runs as follows: under setting [1], 2.99 ± 0.18; under setting [2], 3.25 ± 0.31.

As to LTCNNYKNKMMVCQVGGIEALVRT [CTNNB1], the protein stability index reads like this: under setting [1], 2.32 ± 0.38; under setting [2], 2.23 ± 0.56.

As to LTCVICLNYLVDPVTICCGHSFCR [TRIM43], the protein stability index turned out to be 2.83 ± 0.82 under setting [1] and 2.91 ± 0.97 under setting [2].

Take LTLKVCKPQAPQKLDPTLSSCFFI: the protein stability index by setting is: under setting [1], 2.37 ± 0.59; under setting [2], 2.3 ± 0.3.

As for LTSQNIEIKLVSDVTADSKVLEAL [PLD5], the protein stability index by setting is: under setting [1], 3.13 ± 0.31; under setting [2], 3.18 ± 0.43.

Regarding LVCTFSSQVCRVAYEIMQTLHPDA [FUT8], the protein stability index reads like this: under setting [1], 2.95 ± 0.12; under setting [2], 3.22 ± 0.55.

Regarding LVFPSSSSSSSSQAPGQPPGNQAE [ZBTB22], the protein stability index reads like this: under setting [1], 5.06 ± 0.2; under setting [2], 4.71 ± 0.067.

In the case of LVLKVLWNDFLMCYSSRPLLCWSV [SLC19A2], the protein stability index amounted to 3.19 ± 0.48 under setting [1] and 3.45 ± 0.53 under setting [2].

Turning to LVLVVNTLRRIQASMAPAAALPPV [SERTAD1], the protein stability index was 2.35 ± 0.099 under setting [1] and 2.33 ± 0.2 under setting [2].

As to LVQTTDFFYPLVEDPYMMGRIACA [SEPHS2], the protein stability index amounted to 2.34 ± 0.47 under setting [1] and 2.23 ± 0.29 under setting [2].

For the sequence LVVASGVIYCLGGYDGLNILNSVE [KLHL12], the protein stability index was 3.28 ± 0.25 under setting [1] and 3.03 ± 0.16 under setting [2].

On to LVWRNSIRSSFISSLSFFLKKMGK [FBXO39], for which the protein stability index amounted to 2.65 ± 0.65 under setting [1] and 2.9 ± 0.46 under setting [2].

For LWDTSGQGRFCTIFRSYSRGAQGV [RAB40A], the protein stability index is, setting by setting: under setting [1], 2.24 ± 0.41; under setting [2], 2.51 ± 0.36.

Consider LWSDPMAQEGCKANTIRGGGCYFG [PPEF2], for which the protein stability index runs as follows: under setting [1], 2.68 ± 0.73; under setting [2], 2.5 ± 0.44.

As for LYLFGGHHSRGNTNKFYMLDSRST [KLHDC2], the protein stability index is 2.16 ± 0.12 under setting [1] and 2.17 ± 0.18 under setting [2].

In the case of LYPNPRERSSFYSCAGGRLFQQSC [CHIT1], the protein stability index turned out to be 1.94 ± 0.21 under setting [1] and 2.37 ± 0.43 under setting [2].

Sequence MAAGQNGHEEWVGSAYLFVESSLD [TRADD] came in with a protein stability index under setting [1] of 2.05 ± 0.26 and a protein stability index under setting [2] of 2.65 ± 0.37.

As to MAAGSTTLHAVEKLQVRLATKTEP [ELOA2], the protein stability index by setting is: under setting [1], 3.62 ± 0.23; under setting [2], 3.61 ± 0.36.

With MALKTSLGSVQFMEQFCWPHLRSF, the protein stability index by setting is: under setting [1], 3.01 ± 0.86; under setting [2], 2.69 ± 0.73.

As for MATATPVPPRMGSRAGGPTTPLSP [LMNB1], the protein stability index stood at 4.21 ± 0.17 under setting [1] and 4.24 ± 0.29 under setting [2].

Take MDYKSSLIQDGNPMENLEKQLICP [TRIM63]: the protein stability index runs as follows: under setting [1], 4.06 ± 0.29; under setting [2], 4.14 ± 0.16.

For MEDEMPKTLYVGNLSRDVTEALIL [TIA1], the protein stability index stood at 2.41 ± 0.36 under setting [1] and 2.63 ± 0.28 under setting [2].

For the sequence MEIMEAYSVARQFNLTPPICEQAE [KCNAB2], the protein stability index by setting is: under setting [1], 3.72 ± 0.18; under setting [2], 3.65 ± 0.33.

For the sequence MEKATVPVAAATAAEGEGSPPAVA [ANKRD17], the protein stability index reads like this: under setting [1], 5.67 ± 0.24; under setting [2], 5.65 ± 0.11.

With MFRSKRSGLVRRLWRSRVVPDREE [SMAD6], the protein stability index reads like this: under setting [1], 2.67 ± 0.17; under setting [2], 3.24 ± 0.5.

With MGTSHGITRPSPRRSNSPDKFKRP [CCDC6], the protein stability index by setting is: under setting [1], 4.71 ± 0.087; under setting [2], 4.89 ± 0.11.

Take MHGNEALGRELMLQLSEFLCEEFR [CPN1]: the protein stability index is 2.24 ± 0.49 under setting [1] and 2.67 ± 0.22 under setting [2].

As to MIARCLLAVRSLRRVGGSRILLRM [NLN], the protein stability index was 2.35 ± 0.74 under setting [1] and 2.05 ± 0.39 under setting [2].

MISTYEFGKSFFQRLNQDRLLGG [SLC25A39] displayed a protein stability index (treatment: DMSO, c terminus: native) of 3.21 ± 0.83 and a protein stability index (treatment: MLN4924 1 uM, 8 h, c terminus: native) of 2.44 ± 0.27.

MITVQLPEVPANENIKGYYIIIVP [PTPRD] displayed a protein stability index under setting [1] of 3 ± 0.77 and a protein stability index under setting [2] of 2.99 ± 0.62.

For the sequence MKFVPRYSLVLELSDSGAFRRSLH [APMAP], the protein stability index runs as follows: under setting [1], 2.17 ± 0.54; under setting [2], 2.03 ± 0.51.

Turning to MKYYIVHLKRHFMFRNHLCLVFEL [DYRK1B], the protein stability index is, setting by setting: under setting [1], 2.9 ± 0.53; under setting [2], 2.44 ± 0.63.

For MLTTRVFSLVGKRAISTSVCVRAH [COX4I1], the protein stability index under setting [1] was determined as 2.56 ± 0.64 and the protein stability index under setting [2] is 2.4 ± 0.59.

On to MPHARTETSVGTYESHSTSELEDL [TPD52L3], for which the protein stability index reads like this: under setting [1], 5.43 ± 0.18; under setting [2], 5.37 ± 0.3.

Consider MQEKNPVHVIGVEEPSVGASMLFD [ZNF8], for which the protein stability index is 4.41 ± 0.094 under setting [1] and 4.34 ± 0.2 under setting [2].

Turning to MQENITKVIERGERLDELQDKSES [VAMP4], the protein stability index runs as follows: under setting [1], 5.04 ± 0.37; under setting [2], 5.05 ± 0.41.

As to MQRMIQQFAAEYTSKNSSTQDPSQ [LCOR], the protein stability index turned out to be 3.69 ± 0.41 under setting [1] and 3.68 ± 0.45 under setting [2].

On to MRAQAQEQERRERREQAAAAPFPS [TFE3], for which the protein stability index runs as follows: under setting [1], 5.09 ± 0.26; under setting [2], 4.91 ± 0.22.

In the case of MSAAQGWDRNRRRGGGAAGAGGGG [KLHDC10], the protein stability index under setting [1] is 4.97 ± 0.27 and the protein stability index under setting [2] stood at 4.92 ± 0.25.

As to MSDRRENDMSPSNNVVPIHVPPTT [RAB11A], the protein stability index reads like this: under setting [1], 4.67 ± 0.17; under setting [2], 4.87 ± 0.12.

Consider MSPSMLTRNSPRGCRLPSISSTTC [SPATS1], for which the protein stability index came out at 2.97 ± 0.18 under setting [1] and 3.03 ± 0.2 under setting [2].

As for MSVNVNRSVSDQFYRYKMPRLIAK [EIF5], the protein stability index by setting is: under setting [1], 2.52 ± 0.14; under setting [2], 2.77 ± 0.29.

Regarding MTVKQYEAARLEYDAYRTDLEELS [ARFIP2], the protein stability index was found to be 3.84 ± 0.19 under setting [1] and 3.97 ± 0.21 under setting [2].

As for MVMIRGNSGLKPKDNEFTSKPWHW [POMT2], the protein stability index by setting is: under setting [1], 2.38 ± 0.26; under setting [2], 2.21 ± 0.25.

Sequence MYLSPPSIHCLGPIKLELLEPKAN [VPS39] registered a protein stability index under setting [1] of 2.26 ± 0.38 and a protein stability index under setting [2] of 2.41 ± 0.39.

For MYYRGSAAAIIVYDITKEETFSTL [RAB22A], the protein stability index runs as follows: under setting [1], 2.75 ± 0.69; under setting [2], 2.72 ± 0.84.

For the sequence NACATKEQKNHTFPRLNRNKYMVT [PLD5], the protein stability index turned out to be 3.63 ± 0.3 under setting [1] and 3.77 ± 0.41 under setting [2].

On to NAEMVQQTTYLEDRPMFMLQCAME [LOXL2], for which the protein stability index runs as follows: under setting [1], 3.11 ± 0.25; under setting [2], 3 ± 0.1.

Take NAFQETWYWHGDVNSNKVVMSGVK [LOXL2]: the protein stability index under setting [1] is 2.75 ± 0.31 and the protein stability index under setting [2] was found to be 2.84 ± 0.48.

Turning to NDTKKMYAMKYMNKQKCVERNEVR [STK32A], the protein stability index is, setting by setting: under setting [1], 3.71 ± 0.2; under setting [2], 3.97 ± 0.33.

Consider NEWRMVASMSKRRCGVGVSVLDDL [KLHL20], for which the protein stability index is 2.27 ± 0.52 under setting [1] and 2.25 ± 0.34 under setting [2].

With NGDVSAPSAILRTPESTKPGPVCQ [ANKRD40], the protein stability index reads like this: under setting [1], 4.782 ± 0.036; under setting [2], 4.83 ± 0.13.

In the case of NGQKPLGAAEPITVKFANNPSQKT [ELAVL3], the protein stability index under setting [1] was determined as 4.85 ± 0.36 and the protein stability index under setting [2] amounted to 4.83 ± 0.23.

NIAIMTEEPELSPAYLISEAMRRS [GFOD1]: the protein stability index reads like this: under setting [1], 3.5 ± 0.27; under setting [2], 3.72 ± 0.2.

As for NLLEKFFEMKKGQCKDALEIYKRF [SNAP91], the protein stability index amounted to 2.41 ± 0.46 under setting [1] and 2.69 ± 0.8 under setting [2].
